Data set [1] deals with Fr-MLV LTR enhancer acting on GFP gene in HeLa cells. Kind of data set: First generation two-reporter (DsRed/GFP) enhancer-blocking assay, transient transfection, FACS. It is filed as cell-based, human. The settings on record: element interposed between enhancer and GFP gene. The text has this: The strategy elaborated by Applicants to address the potential enhancer-blocking activity of genetic elements consists in setting up a two-reporter genes-assay whereby the potency of suspected insulators can be quantified. A series of plasmids were thus designed, containing a combination of two reporter genes: a DsRed gene, used as the assay system internal control, under the control of a Fr-MLV LTR enhancer/promoter, and a GFP gene under the control of a minimal CMV promoter, but also subjected to the influence of the LTR enhancer. […] By analyzing the expression of both reporter genes by flow cytometry, this system provides a standardized quantitative procedure to assess potential insulator elements. […]
The constructs described in FIG. 14 were used to transfect transiently HeLa cells. The expression of both DsRed and GFP was analyzed by FACS. […]
HeLa cells were transfected with pAG1-3-HS4 (left panel) or pAG1-3-2HS4 (right panel) constructs (respectively constructs #4 and #5 on FIG. 30), and 100′000 cells were analyzed 48 hours later. […]
HeLa cell populations transiently transfected with constructs containing either no cHS4 (noins) or a copy at the GFP extremity (HS4) or two copies flanking the GFP gene (2HS4) were analyzed by FACS. Percentages of GFP-expressing cells (left panel) and GFP mean fluorescence in RLU (right panel) are plotted for each case.

Another data set relates to HeLa cells. The data set can be described thus: Neomycin (G418) resistant colony insulator assay in HeLa cells. It is filed as cell-based, human. The settings on record: element between enhancer and minimal promoter/neo, 2 weeks G418. How it is done: For experimental convenience, Applicants wanted to validate the cHS4 enhancer-blocking activity in HeLa cells (top bars). Using the same approach, the pJC5-4 deriving constructs were stably transfected in HeLa cells. The cHS4 was able to insulate the reporter gene from the LCR activation of nearly 15-fold.
The capacity of the cHS4 to block the Fr-MLV LTR strong enhancer was assessed using the same system in HeLa cells. Additional plasmids were constructed, replacing the β-globin LCR element by the Fr-MLV LTR in both orientations.
FIG. 20. Assessment of the insulator activity of multimerized CTF binding sites using the commonly-used neomycin-resistance insulator assay. The number of neomycin resistant colonies were determined as in FIGS. 15 and 16 after 2 weeks of G418 selection of HeLa cells transfected using the indicated reporter constructs. […]
(A) Schematic representation of the vectors used for the insulator assay based on the quantitation of neomycin-resistant colonies. […] The level of expression of that reporter gene is assessed by the number of neomycin-resistant colonies obtained after stable transfections. […]
(C) Percentage of neomycin-resistant colonies counted 2 to 3 weeks after transfection and G418 selection of HeLa (dashed bars) and K562 (black bars) cells. […]

B1: Ins2: 7 direct repeats of the CTF/NF1 binding site from adenovirus type II origin of replication, 5 bp spacing (nucleic acid)
DNA: ATCGATAAGCTTGCATTGGCAACGTGCCATAAGCATTGGCAACGTGCCATAAGCATTGGCAACGTGCCATAAGCATTGGCAACGTGCCATAAGCATTGGCAACGTGCCATAAGCATTGGCAACGTGCCATAAGCATTGGCAACGTGCCATAAGCGGGGGGATCC
modifications: 7xCTF/NF1 from adenovirus type II
B1: the “decrease of mean fluorescence of GFP-positive cells” value in data set [1] is on record as “approximately three-fold”. Also, the “occurrence of colonies of neomycin-resistant cells” value in the data set with HeLa cells is “significantly reduced the occurrence of colonies of neomycin-resistant cells”.

These data come from patent US20110294873A1, “Gene Transfer Vectors Comprising At Least One Isolated DNA Molecule Having Insulator Or Boundary Properties And Methods To Identify The Same” (UNIVERSITÉ DE LAUSANNE, priority 2008, published 2011).
